Publication PMC7064499

Biological target: FliPQR complex, V. mimicus (FliP5Q4R1) (Vibrio mimicus (strain DSM 19130))
Assay: cryo-EM structure

## FlhB, V. mimicus (natural protein)
  stoichiometry N: 1
